± gives the standard deviation of the averaged measurements.
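Note: ATP exposure 15 min at 22 °C before imaging.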

The test system of this data set is ATP. As to the kind of experiment: switch fluorescence ratio, 500 uM ATP over buffer (Cy3 cluster intensity, sum of 5 cycles each) (fold (ratio)); higher = stronger signal-on switching upon ATP binding; sequences stand for … in TCGTCGGCAGCGTCAGATGTGTATAAGAGACAGTTTTTTTTTTTTTTTTTTTTTTTTT…TC. The following applies: aptamer strand: ATP DNA aptamer (quencher-CACCTGGGGGAGTATTGCGGAGGAAGG + anchor), 100 nM annealed; ATP concentration: 500 uM. The essentials: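 Clusters with intensities outside 100-1000 RFU were excluded. The remaining Cy3-labelled switching-strand clusters on a modified Illumina MiSeq flow-cell had been annealed to 100 nM quencher-labelled ATP aptamer and imaged in selection buffer, then after 15 min with 500 uM ATP at 22 °C, for five cycles separated by NaOH stripping and re-annealing. The fluorescence ratio, averaged per switch-domain sequence, is each cluster's summed target-cycle Cy3 intensity over its summed buffer-cycle Cy3 intensity.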
Regarding TATGAGTAGG, the switch fluorescence ratio turned out to be 0.995 ± 0.015.
In the case of TGAAAATTCG it was 1.08 ± 0.11.
In the case of CAATTTCGTT it was 1.01 ± 0.021.
In the case of TGTTCGAGGG it was 1.02 ± 0.059; in that of GGGGGCTTTG, 0.978 ± 0.023; in that of AAGGACGTGG, 0.98 ± 0.029.
Consider CAGTTGCCAG, for which the switch fluorescence ratio is 0.953 ± 0.019.
As for AAGGGGGGGT, the switch fluorescence ratio turned out to be 0.999 ± 0.03.
For TGTTTGATAT, the switch fluorescence ratio amounted to 0.9917 ± 0.005.
The value for AGAAATACGG was 1.21 ± 0.063.
In the case of AGGGGCAGCT it was 0.977 ± 0.024.
The value for AAGGGTAGGA was 1 ± 0.013; that for CGTACCAGGG was 1.32 ± 0.036; that for GGGGGATCTC was 1.01 ± 0.021.
In the case of TTGACTAT, the switch fluorescence ratio was 1.005 ± 0.0027.
In the case of TTTGAAGGTA it was 1.01 ± 0.025.
The value for AATGTCAGCG was 0.999 ± 0.037; that for CCTCGGCGGT was 2.47 ± 1.7; that for TTACGCAAGT was 1.27 ± 0.17.
In the case of GGGATGAGGA it was 0.9848 ± 0.0044.
For ATGATCTGAG, the switch fluorescence ratio was 1.028 ± 0.005.
With AAGAAAGTCG, the switch fluorescence ratio amounted to 0.9998 ± 0.0052.
The value for TAGTAGATGT was 1.01 ± 0.036; that for GATGAGTTG was 1.01 ± 0.012.
With TAAGGGAATT, the switch fluorescence ratio worked out at 1 ± 0.036.
Regarding CGCCGTGTCA, the switch fluorescence ratio came out at 1.02 ± 0.068.
In the case of GGTGTTAGTG it was 0.977 ± 0.023.
For the sequence AGTTCTAGGT, the switch fluorescence ratio came to 0.986 ± 0.018.
The value for TTTTCGGATT was 0.9845 ± 0.0054.
In the case of AGGGCCGGTA it was 1.03 ± 0.026; in that of TGTCGGAGGT, 1.02 ± 0.05; in that of TAGGTAGAGT, 0.9899 ± 0.006.
TCGTATACGG: the switch fluorescence ratio was determined as 0.963 ± 0.044.
In the case of CTTGACTGTG it was 1.03 ± 0.011.
The value for TATCCGTGCT was 1 ± 0.029; that for AAAACACAGA was 1.15 ± 0.14.
The value for GGGGGAAATG was 0.994 ± 0.029; that for TTATTTGTAC was 1.052 ± 0.0021.
Take GCGTTGGAGC: the switch fluorescence ratio was 0.9949 ± 0.0072.
The value for AAAATTTGTT was 1 ± 0.015.
With ACTCGGGA, the switch fluorescence ratio came out at 1.13 ± 0.16.
As for GAGCCACCAC, the switch fluorescence ratio was 1.051 ± 0.002.
In the case of AAGGGTTTGC it was 0.974 ± 0.022; in that of TTTTTGGGCC, 0.994 ± 0.017.
For AATATATGCA, the switch fluorescence ratio turned out to be 0.991 ± 0.034.
The value for TTTTGTGGGG was 0.999 ± 0.037; that for CGGACTTATT was 0.9686 ± 0.0054.
For the sequence CAGAACCCGC, the switch fluorescence ratio came out at 1.1 ± 0.015.
ATATTATTCT: the switch fluorescence ratio stood at 1.005 ± 0.0096.
The value for AAACGAATGG was 0.981 ± 0.022; that for TTAAGTAGTG was 0.98 ± 0.014; that for TTAAAATTAT was 0.996 ± 0.023.
The value for TTGTGGTTCC was 1.08 ± 0.14.
For ACGATGTAAA, the switch fluorescence ratio worked out at 0.9574 ± 0.0042.
In the case of AGCCTTTTTG it was 0.992 ± 0.042.
The value for GGAGTATAAG was 0.957 ± 0.012; that for AGTGATATTA was 1.01 ± 0.022.
Regarding ATTTATATCA, the switch fluorescence ratio is 1.01 ± 0.024.
In the case of TATTTGTTTG it was 0.984 ± 0.03; in that of CCTTGAGGGA, 1.06 ± 0.11; in that of CCTACATGTG, 1.26 ± 0.11.
As for TTTAATTGTG, the switch fluorescence ratio was determined as 0.9891 ± 0.0082.
With TGGGTCGGGT, the switch fluorescence ratio turned out to be 0.9817 ± 0.0088.
The value for AATTTTGTTT was 0.991 ± 0.035; that for GCCTAATGGT was 0.993 ± 0.016.
The value for GGGGGTGTCT was 0.99 ± 0.034; that for TTTTTCCTGA was 1.02 ± 0.011; that for CCGGGTTTAC was 1.621 ± 0.013.
In the case of TTGTTTATGT it was 0.9993 ± 0.0082; in that of TATGAAGCCG, 1.06 ± 0.044.
Turning to AAGGACAAGG, the switch fluorescence ratio turned out to be 0.999 ± 0.043.
In the case of TCACGTTCTG it was 1.03 ± 0.029; in that of ACTCGGAGCG, 1.01 ± 0.038.
The value for TAACGCAGCT was 1.07 ± 0.073; that for CGTTTCGTGT was 0.972 ± 0.066.
Turning to ATGGCGTGGC, the switch fluorescence ratio stood at 0.986 ± 0.018.
The value for TATAATCCCT was 1.02 ± 0.083; that for TTCACCACTT was 1.01 ± 0.025.
Regarding AATTACGTGT, the switch fluorescence ratio is 1.0006 ± 0.00059.
The value for AAACAGGGGG was 0.982 ± 0.028; that for AGGTACGGCC was 1.03 ± 0.033.
In the case of TTGGTTTACC it was 0.957 ± 0.011; in that of TGTTAAAAAA, 1.01 ± 0.02.
In the case of TTGTGACGGG it was 1 ± 0.023.
GAGGAAAGGC: the switch fluorescence ratio stood at 0.999 ± 0.058.
With ATCTAATAGG, the switch fluorescence ratio is 0.959 ± 0.018.
The value for TGCGGAATAT was 1.14 ± 0.064; that for GCGTGCGTGT was 1.03 ± 0.032.
The value for TATATTGCGT was 0.9711 ± 0.0073.
The value for CTAGCAACGT was 1.03 ± 0.067.
For the sequence TAAGAGTGCT, the switch fluorescence ratio was 0.9726 ± 0.0043.
In the case of ATCGGCCATG it was 0.988 ± 0.011.
In the case of TCTAAGGGTG it was 1.014 ± 0.01; in that of TTATCCAAAG, 0.966 ± 0.016; in that of ATTTTGTGGA, 0.987 ± 0.015.
As for GTCAAAAAGT, the switch fluorescence ratio came out at 0.985 ± 0.028.
In the case of AGGTGAAGGT it was 1.01 ± 0.0035.
The value for CAAGTGACTT was 1.02 ± 0.016.
Turning to CCAGCCGGGG, the switch fluorescence ratio is 1.06 ± 0.075.
For CTAACGCCTG, the switch fluorescence ratio amounted to 1.03 ± 0.07.
As to TGCGACTGGT, the switch fluorescence ratio stood at 0.942 ± 0.024.
With TGGCCTGCTG, the switch fluorescence ratio turned out to be 0.9919 ± 0.0026.
In the case of CAGCAGATTA it was 1.04 ± 0.018; in that of AAGTCGCTGT, 1.02 ± 0.016.
In the case of GTGGTTTATA it was 1.01 ± 0.021; in that of ATGTTATTTT, 1.013 ± 0.0049.
In the case of TGAGGGGGAG it was 1.01 ± 0.04; in that of GGATGGTGGG, 1.01 ± 0.042.
For CGGGCAACGT, the switch fluorescence ratio came to 1.02 ± 0.037.
On to ATAGCCGTGC, for which the switch fluorescence ratio was determined as 1.017 ± 0.0054.
For GTCTTGGGGG, the switch fluorescence ratio is 1 ± 0.023.
Regarding TCATAAGTGA, the switch fluorescence ratio came out at 0.9848 ± 0.0083.
The value for AGGTTTGGGC was 0.997 ± 0.061; that for TAATGGTTCG was 0.9962 ± 0.0025; that for CTAATGGAGC was 0.98 ± 0.017.
In the case of GAAAGGGTTA it was 0.9898 ± 0.0085.
Consider CAGAGAGTTA, for which the switch fluorescence ratio stood at 0.984 ± 0.024.
TTTTGGCCTG: the switch fluorescence ratio was 1.02 ± 0.038.
ACAGTGGGAG: the switch fluorescence ratio was 1.011 ± 0.003.
The value for CTTGTCACCA was 0.988 ± 0.022.
